{"source": "patent US20210244806A1", "about": "“Recombinant Protease Inhibitor-Containing Compositions, Methods for Producing Same and Uses Thereof” (ORAMED LTD., priority 2018, published 2021)", "molecules": {"B1": {"name": "rBBI: recombinant Bowman-Birk type proteinase inhibitor, codon-optimized (SEQ ID NO: 1), secreted from Pichia pastoris GS115, clone B17 (protein, listed as Pichia pastoris)", "chain": "DDESSKPCCDQCACTKSNPPQCRCSDMRLNSCHSACKSCICALSYPAQCFCVDITDFCYEPCKPSEDDKEN"}}, "key": {"trypsin": {"target": "T1, trypsin (Bos taurus, UniProt P00760)", "T1 sequence (P00760 24-246)": "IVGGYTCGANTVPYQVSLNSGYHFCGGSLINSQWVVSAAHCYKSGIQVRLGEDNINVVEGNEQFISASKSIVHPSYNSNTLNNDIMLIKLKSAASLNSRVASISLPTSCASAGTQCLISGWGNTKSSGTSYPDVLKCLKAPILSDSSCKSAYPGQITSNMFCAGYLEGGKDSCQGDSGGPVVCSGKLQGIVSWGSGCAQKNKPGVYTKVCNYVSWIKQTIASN", "assay": "Trypsin Inhibition Assay", "type": "biochemical", "procedure": "FIG. 5. Trypsin Inhibition Assay.\nUnless indicated otherwise, anti-trypsin activity referred to herein is measured using trypsin having an activity of 10,000 BAEE units per mg. of trypsin, and is expressed in mg. of trypsin inhibited per mg. of protein being tested. BAEE refers to Na-Benzoyl-L-Arginine Ethyl Ester Solution (see the directions for Sigma-Aldrich Product No. B4500). For example, in a typical assay, one unit corresponds to the amount of inhibitor that reduces the trypsin activity by one benzoyl-L-arginine ethyl ester unit (BAEE-U). One BAEE-U is the amount of enzyme that increases the absorbance at 253 nm by 0.001 per minute at pH 7.6 and 25° C. See, for example, K. Ozawa, M. Laskowski, 1966, J. Biol. Chem. 241:3955; and Y. Birk, 1976, Meth. Enzymol. 45:700.\n(§1) Protease inhibitor enzymatic activity was verified for the recombinant product, and demonstrable inhibition of chymotrypsin activity was achieved (FIG. 4) as well as inhibition of trypsin activity (FIG. 5)."}, "chymotrypsin": {"target": "chymotrypsin (Bos taurus, UniProt P00766)", "assay": "Chymotrypsin Inhibition Assay", "type": "biochemical", "procedure": "FIG. 4. Chymotrypsin Inhibition Assay.\nUnless indicated otherwise, anti-chymotrypsin activity referred to herein is measured using chymotrypsin having an activity of 40 BTEE units per mg. of chymotrypsin, and is expressed in mg. of chymotrypsin inhibited per mg. of protein being tested. BTEE refers to N-Benzoyl-L-Tyrosine Ethyl Ester (see the directions for Sigma-Aldrich Product No. B6125).\nas §1"}}}
{"molecule": "B1", "values": [{"measurement": "inhibition of trypsin activity compared to purified SBTI purified from soya", "setting": "trypsin; FIG. 5, result in words", "value": "far greater inhibition of enzymatic activity"}, {"measurement": "trypsin inhibited by 1 mg inhibitor", "setting": "trypsin; FIG. 5, trypsin of 10,000 BAEE units per mg", "value": "1.7 mg trypsin inhibited by 1 mg inhibitor"}, {"measurement": "inhibition of chymotrypsin activity compared to purified SBTI purified from soya", "setting": "chymotrypsin; FIG. 4, result in words", "value": "far greater inhibition of enzymatic activity"}, {"measurement": "chymotrypsin inhibited by 1 mg inhibitor", "setting": "chymotrypsin; FIG. 4, chymotrypsin of 40 BTEE units per mg", "value": "2.3 mg chymotrypsin inhibited by 1 mg inhibitor"}]}
